Test results as given in the RNAGym collection of RNA variant scans (doi:10.7554/elife.80360).

B1: Hammerhead Ribozyme (parent)
chain: ACCGGAUGUGCUUUCCGGUCUGAUGAGUCCGUGAGGACGAAACAG

Variants of: B1
Assay: self-cleavage, relative activity (ratio to wild type); higher = more cleavage; co-transcriptional

Variant	self-cleavage
C15A G18C	0.364
C15A G18U	0.33
C15A G22A	0.34
C15A G22C	0.3
C15A G22U	0.303
C15A G25A	0.341
C15A G25C	0.381
C15A G25U	0.339
C15A G27A	0.589
C15A G27C	0.435
C15A G27U	0.4
C15A G31A	1.05
C15A G31C	0.807
C15A G31U	0.999
C15A G33A	0.921
C15A G33C	0.953
C15A G33U	0.893
C15A G35A	0.453
C15A G35C	0.509
C15A G35U	0.583
C15A G36A	0.407
C15A G36C	0.379
C15A G36U	0.341
C15A G39A	0.337

Variant	self-cleavage
C15A G39C	0.366
C15A G39U	0.353
C15A G45A	0.498
C15A G45C	0.44
C15A G45U	0.467
C15A U19A	0.365
C15A U19C	0.366
C15A U19G	0.34
C15A U21A	0.415
C15A U21C	0.373
C15A U21G	0.404
C15A U24A	0.875
C15A U24C	0.892
C15A U24G	0.743
C15A U28A	0.413
C15A U28C	0.425
C15A U28G	0.378
C15A U32A	0.782
C15A U32C	0.952
C15A U32G	0.769
C15G	0.877
C15G A23C	0.301
C15G A23G	0.32
C15G A23U	0.303

Variant	self-cleavage
C15G A26C	0.321
C15G A26G	0.364
C15G A26U	0.516
C15G A34C	0.671
C15G A34G	0.833
C15G A34U	0.904
C15G A37C	0.364
C15G A37G	0.535
C15G A37U	0.367
C15G A40C	0.326
C15G A40G	0.42
C15G A40U	0.358
C15G A41C	0.398
C15G A41G	0.431
C15G A41U	0.307
C15G A42C	0.277
C15G A42G	0.276
C15G A42U	0.328
C15G A44C	0.277
C15G A44G	0.834
C15G A44U	0.408
C15G C16A	0.367
C15G C16G	0.384
C15G C16U	0.58

Variant	self-cleavage
C15G C20A	0.361
C15G C20G	0.283
C15G C20U	0.453
C15G C29A	0.404
C15G C29G	0.485
C15G C29U	0.822
C15G C30A	0.653
C15G C30G	0.618
C15G C30U	0.722
C15G C38A	0.446
C15G C38G	0.386
C15G C38U	0.633
C15G C43A	0.262
C15G C43G	0.327
C15G C43U	0.248
C15G G17A	0.322
C15G G17C	0.323
C15G G17U	0.321
C15G G18A	0.378
C15G G18C	0.353
C15G G18U	0.293
C15G G22A	0.376
C15G G22C	0.331
C15G G22U	0.352

Variant	self-cleavage
C15G G25A	0.348
C15G G25C	0.262
C15G G25U	0.315
C15G G27A	0.464
C15G G27C	0.427
C15G G27U	0.339
C15G G31A	1.01
C15G G31C	0.792
C15G G31U	0.856
C15G G33A	0.9
C15G G33C	1.04
C15G G33U	1
C15G G35A	0.468
C15G G35C	0.456
C15G G35U	0.455
C15G G36A	0.417
C15G G36C	0.284
C15G G36U	0.374
C15G G39A	0.327
C15G G39C	0.275
C15G G39U	0.301
C15G G45A	0.446
C15G G45C	0.379
C15G G45U	0.421

Variant	self-cleavage
C15G U19A	0.336
C15G U19C	0.232
C15G U19G	0.382
C15G U21A	0.424
C15G U21C	0.275
C15G U21G	0.326
C15G U24A	0.717
C15G U24C	0.818
C15G U24G	0.574
C15G U28A	0.389
C15G U28C	0.528
C15G U28G	0.384
C15G U32A	0.875
C15G U32C	0.804
C15G U32G	0.574
C15U	0.912
C15U A23C	0.36
C15U A23G	0.271
C15U A23U	0.342
C15U A26C	0.424
C15U A26G	0.313
C15U A26U	0.752
C15U A34C	0.98
C15U A34G	0.813

Variant	self-cleavage
C15U A34U	0.843
C15U A37C	0.714
C15U A37G	0.789
C15U A37U	0.953
C15U A40C	0.385
C15U A40G	0.269
C15U A40U	0.307
C15U A41C	0.368
C15U A41G	0.355
C15U A41U	0.352
C15U A42C	0.351
C15U A42G	0.265
C15U A42U	0.329
C15U A44C	0.596
C15U A44G	1.21
C15U A44U	0.664
C15U C16A	0.76
C15U C16G	0.708
C15U C16U	0.776
C15U C20A	0.511
C15U C20G	0.387
C15U C20U	0.627
C15U C29A	0.686
